Results from article PMC5266791 (Cell Reports, 2016).

B1: (MBP)FANCC-FANCE-FANCF complex (complex)
chain 1: MAQDSVDLSCDYQFWMQKLSVWDQASTLETQQDTCLHVAQFQEFLRKMYEALKEMDSNTVIERFPTIGQLLAKACWNPFILAYDESQKILIWCLCCLINKEPQNSGQSKLNSWIQGVLSHILSALRFDKEVALFTQGLGYAPIDYYPGLLKNMVLSLASELRENHLNGFNTQRRMAPERVASLSRVCVPLITLTDVDPLVEALLICHGREPQEILQPEFFEAVNEAILLKKISLPMSAVVCLWLRHLPSLEKAMLHLFEKLISSERNCLRRIECFIKDSSLPQAACHPAIFRVVDEMFRCALLETDGALEIIATIQVFTQCFVEALEKASKQLRFALKTYFPYTSPSLAMVLLQDPQDIPRGHWLQTLKHISELLREAVEDQTHGSCGGPFESWFLFIHFGGWAEMVAEQLLMSAAEPPTALLWLLAFYYGPRDGRQQRAQTMVQVKAVLGHLLAMSRSSSLSAQDLQTVAGQGTDTDLRAPAQQLIRHLLLNFLLWAPGGHTIAWDVITLMAHTAEITHEIIGFLDQTLYRWNRLGIESPRSEKLARELLKELRTQV
chain 2: MATPDAGLPGAEGVEPAPWAQLEAPARLLLQALQAGPEGARRGLGVLRALGSRGWEPFDWGRLLEALCREEPVVQGPDGRLELKPLLLRLPRICQRNLMSLLMAVRPSLPESGLLSVLQIAQQDLAPDPDAWLRALGELLRRDLGVGTSMEGASPLSERCQRQLQSLCRGLGLGGRRLKSPQAPDPEEEENRDSQQPGKRRKDSEEEAASPEGKRVPKRLRCWEEEEDHEKERPEHKSLESLADGGSASPIKDQPVMAVKTGEDGSNLDDAKGLAESLELPKAIQDQLPRLQQLLKTLEEGLEGLEDAPPVELQLLHECSPSQMDLLCAQLQLPQLSDLGLLRLCTWLLALSPDLSLSNATVLTRSLFLGRILSLTSSASRLLTTALTSFCAKYTYPVCSALLDPVLQAPGTGPAQTELLCCLVKMESLEPDAQVLMLGQILELPWKEETFLVLQSLLERQVEMTPEKFSVLMEKLCKKGLAATTSMAYAKLMLTVMTKYQANITETQRLGLAMALEPNTTFLRKSLKAALKHLGP
chain 3: MESLLQHLDRFSELLAVSSTTYVSTWDPATVRRALQWARYLRHIHRRFGRHGPIRTALERRLHNQWRQEGGFGRGPVPGLANFQALGHCDVLLSLRLLENRALGDAARYHLVQQLFPGPGVRDADEETLQESLARLARRRSAVHMLRFNGYRENPNLQEDSLMKTQAELLLERLQEVGKAEAERPARFLSSLWERLPQNNFLKVIAVALLQPPLSRRPQEELEPGIHKSPGEGSQVLVHWLLGNSEVFAAFCRALPAGLLTLVTSRHPALSPVYLGLLTDWGQRLHYDLQKGIWVGTESQDVPWEELHNRFQSLCQAPPPLKDKVLTALETCKAQDGDFEVPGLSIWTDLLLALRSGAFRKRQVLGLSAGLSSV
B2: FANCB (natural protein)
chain: MTSKQAMSSNEQERLLCYNGEVLVFQLSKGNFADKEPTKTPILHVRRMVFDRGTKVFVQKSTGFFTIKEENSHLKIMCCNCVSDFRTGINLPYIVIEKNKKNNVFEYFLLILHSTNKFEMRLSFKLGYEMKDGLRVLNGPLILWRHVKAFFFISSQTGKVVSVSGNFSSIQWAGEIENLGMVLLGLKECCLSEEECTQEPSKSDYAIWNTKFCVYSLESQEVLSDIYIIPPAYSSVVTYVHICATEIIKNQLRISLIALTRKNQLISFQNGTPKNVCQLPFGDPCAVQLMDSGGGNLFFVVSFISNNACAVWKESFQVAAKWEKLSLVLIDDFIGSGTEQVLLLFKDSLNSDCLTSFKITDLGKINYSSEPSDCNEDDLFEDKQENRYLVVPPLETGLKVCFSSFRELRQHLLLKEKIISKSYKALINLVQGKDDNTSSAEEKECLVPLCGEEENSVHILDEKLSDNFQDSEQLVEKIWYRVIDDSLVVGVKTTSSLKLSLNDVTLSLLMDQAHDSRFRLLKCQNRVIKLSTNPFPAPYLMPCEIGLEAKRVTLTPDSKKEESFVCEHPSKKECVQIITAVTSLSPLLTFSKFCCTVLLQIMERESGNCPKDRYVVCGRVFLSLEDLSTGKYLLTFPKKKPIEHMEDLFALLAAFHKSCFQITSPGYALNSMKVWLLEHMKCEIIKEFPEVYFCERPGSFYGTLFTWKQRTPFEGILIIYSRNQTVMFQCLHNLIRILPINCFLKNLKSGSENFLIDNMAFTLEKELVTLSSLSSAIAKHESNFMQRCEVSKGKSSVVAAALSDRRENIHPYRKELQREKKKMLQTNLKVSGALYREITLKVAEVQLKSDFAAQKLSNL

Key:
[1] = target: FANCB-FANCL-FAAP100 complex (human, UniProt Q8NB91;Q9NW38;Q0VG06); assay: SEC
[2] = target: the molecule itself; assay: negative-stain single-particle EM

FANCB-FANCL-FAAP100 complex, sequence (Q9NW38 whole entry, chain 2 of 2): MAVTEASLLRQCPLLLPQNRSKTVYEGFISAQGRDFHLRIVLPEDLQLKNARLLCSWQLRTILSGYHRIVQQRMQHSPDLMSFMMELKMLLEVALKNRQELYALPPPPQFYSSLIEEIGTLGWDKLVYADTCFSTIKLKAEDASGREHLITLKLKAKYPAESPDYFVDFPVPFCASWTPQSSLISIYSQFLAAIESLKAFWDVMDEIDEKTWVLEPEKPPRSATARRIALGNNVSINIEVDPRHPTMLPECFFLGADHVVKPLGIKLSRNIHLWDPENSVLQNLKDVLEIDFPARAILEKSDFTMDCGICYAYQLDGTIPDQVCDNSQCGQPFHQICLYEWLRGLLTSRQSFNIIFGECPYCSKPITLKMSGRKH
FANCB-FANCL-FAAP100 complex, sequence (Q0VG06 whole entry, chain 3 of 2): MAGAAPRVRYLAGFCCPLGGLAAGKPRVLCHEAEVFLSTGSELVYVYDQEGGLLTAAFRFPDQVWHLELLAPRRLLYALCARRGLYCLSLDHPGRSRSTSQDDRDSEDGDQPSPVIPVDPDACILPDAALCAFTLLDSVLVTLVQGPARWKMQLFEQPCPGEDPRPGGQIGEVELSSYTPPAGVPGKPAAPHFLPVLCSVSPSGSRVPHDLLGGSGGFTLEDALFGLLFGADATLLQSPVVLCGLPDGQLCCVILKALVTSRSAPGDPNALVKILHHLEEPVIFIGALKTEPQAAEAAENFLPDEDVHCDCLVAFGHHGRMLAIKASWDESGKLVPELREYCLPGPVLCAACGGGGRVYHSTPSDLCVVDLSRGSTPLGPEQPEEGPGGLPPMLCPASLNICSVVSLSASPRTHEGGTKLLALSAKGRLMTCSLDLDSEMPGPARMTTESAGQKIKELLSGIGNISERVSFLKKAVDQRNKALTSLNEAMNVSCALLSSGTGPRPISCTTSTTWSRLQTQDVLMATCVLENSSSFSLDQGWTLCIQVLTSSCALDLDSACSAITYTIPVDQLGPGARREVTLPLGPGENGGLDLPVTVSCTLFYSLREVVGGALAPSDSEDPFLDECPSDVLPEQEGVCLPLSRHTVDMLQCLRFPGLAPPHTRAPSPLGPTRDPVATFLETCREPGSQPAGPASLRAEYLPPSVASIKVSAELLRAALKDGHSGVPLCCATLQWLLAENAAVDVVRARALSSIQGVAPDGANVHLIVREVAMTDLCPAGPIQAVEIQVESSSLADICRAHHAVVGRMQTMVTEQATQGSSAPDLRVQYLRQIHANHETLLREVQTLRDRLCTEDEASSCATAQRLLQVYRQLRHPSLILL

Binder | binding result [1] | stoichiometry N [2]
B1 | binds | –
B2 | – | 2
